Measurements taken from publication PMC9114808.

Biological target: 14-3-3 protein gamma (UniProt P61982)
Assay: peptide bead pull-down, label-free MS
Conditions: reference: unphosphorylated peptide; sites T426

Substance: Septin 7 (Sept7) C-terminal tail peptide C-terminal tail, 416-438 (from UniProt Q16181) pT426 peptide
- binding against the reference: stronger
